Measurements published in patent US20130225434A1 (BOARD OF TRUSTEES OF THE UNIVERSITY OF ILLINOIS, published 2013).
Square brackets hold non-standard residues; d marks the D form. * marks the point of attachment. Biotin = O=C1N[C@H]2[C@H](CS[C@H]2CCCCC(=O)*)N1; pT = C[C@@H](OP(=O)(O)O)[C@H](N)C(=O)O

Biological target: T1, Rad9-pT peptide with SGS linker (SGS-SLEVpTEADATFYAKK) (yeast, SMILES …)
T1 construct: also called cognate pT peptide; Rad-pT
T1 peptide: Biotin-SGSSLEV[pT]EADATFYAKK-NH2
Assay: phage ELISA, normalised to Flag
Source text: Through Kunkel mutagenesis (Yaffe (2002) Nat Rev Mol Cell Bol 3, 177-86), the amino acid residue at position 34 in the β1 strand of the D2 FHA 1 domain was replaced (from the naturally-occurring V) one at a time with each of the other naturally occurring amino acids and binding to the immobilized Rad9-pT peptide was monitored by phage ELISA. Phage binding was detected using anti-M13 antibody conjugated to Horse Radish Peroxidase (HRP). […] All the variants display an N-terminal Flag peptide and the amount of phage particles used for each variant in this experiment has been normalized for this epitope.
To amplify the phage particles displaying the recombinant FHA1 variants, TG1 bacterial cells (5 mL; Stratagene) harboring the phagemid DNA were infected at mid-log (OD₆₀₀ₙₘ=0.5-0.6) with M13K07 helper phage (New England Biolabs) at a multiplicity of infection (MOI) of 20 for 1 h at 37° C. at 150 rpm. Infected cells were centrifuged, and the pellet was resuspended in fresh Luria Bertani medium (LB: 10 g Tryptone, 5 g Yeast extract, and 10 g NaCl per liter) supplemented with 50 μg/mL carbenicillin and 50 μg/ml kanamycin, and phage were amplified overnight at 30° C. at 250 rpm. All of the phage ELISA steps were performed at room temperature. […]

B1: D2 FHA1 variant with W at position 34, phage-displayed (designed binder)
chain: MENITQPTQQSTQATQRFLIEKFSQEQIGENIVWRVISTTGQIPIRDLSADISQVLKEKRSIKKVWTFGRNPACDYHLGNISRLSNKHFQILLGEDGNLLLNDISTNGTWLNGQKVEKNSNQLLSQGDEITVGVGVESDILSLVIFINDKFKQSLEQNKVDRIRSNLKNT
notes: Made from D2 by Kunkel mutagenesis at position 34; also called S34W; not shown: N-terminal Flag peptide, cloning-site residues and M13 protein III (display carrier)
  binding result: no binding
